# Values quoted from earlier work as cited in paper PMC6389863.
# Legend:
# [1] = biological target: Asp26 (UniProt position 26, KLVVVDFSATW); conditions: reduced (active-site dithiol) thioredoxin
# [2] = biological target: Cys25 (UniProt position 157, GSCGSCWAFSA)
# [3] = biological target: Cys25 (UniProt position 158, GSCGSCWAFSA)
# [4] = biological target: Tyr149 (UniProt position 149, TPQSPYGKSKL)
# [5] = biological target: His149 (UniProt position 177, ITFTNHVNAWK)
# [6] = biological target: Asp70 (UniProt position 70, KLFNQDVDAAV)
# [7] = biological target: Asp76 (UniProt position 102, GSPGADRVVFN)
# [8] = biological target: Glu73 (UniProt position 120, GRTWREADINY)
# [9] = biological target: Cys87 (UniProt position 87, RLGRICLDVLK)
# [10] = biological target: Asp102 (UniProt position 102, LTINNDITLLK)
# [11] = test system: Tyr31
# [12] = test system: Lys55
# [13] = biological target: His72 (UniProt position 73, GINTAHKARQV)
# [14] = biological target: Lys39 (UniProt position 39, EFPGGKIEMGE)
# [15] = biological target: His18 (UniProt position 19, KCAQCHTVEKG)
substance,measurement,setting,value
"Thioredoxin (human, reduced) (Homo sapiens)",pKa,[1],9.9
Papaya protease (PDB 1PPO; caricain / papaya protease omega) (Carica papaya (inferred)),pKa,[2],2.88
Papain (Carica papaya (inferred)),pKa,[3],3.32
UDP-galactose 4-epimerase (Escherichia coli),pKa,[4],6.08
Xylanase (Bacillus circulans xylanase) (Bacillus circulans (from the title of ref 20)),pKa,[5],<2.3
T4 lysozyme (Enterobacteria phage T4 (inferred)),pKa,[6],0.5
Ribonuclease T1 (RNase T1) (not stated (inferred Aspergillus oryzae)),pKa,[7],0.5
Barnase (not stated (inferred Bacillus amyloliquefaciens)),pKa,[8],2.1
"Ubiquitin-conjugating enzyme Ubc13 (not stated (PDB 1JBB is Saccharomyces cerevisiae Ubc13, inferred))",pKa,[9],11.1
Chymotrypsinogen A (bovine) (Bos taurus),pKa,[10],1.36
"Ovomucoid third domain, silver pheasant (OMSVP3) (Lophura nycthemera (silver pheasant))",pKa,[11],12.5
Calbindin D9k (bovine) (Bos taurus),pKa,[12],12.12
Bovine heart phosphotyrosyl phosphatase (low molecular weight PTP) (Bos taurus),pKa,[13],9.19
MutT enzyme (not stated (inferred Escherichia coli)),pKa,[14],8.4
Cytochrome c (horse) (Equus caballus),pKa,[15],2.5
